From patent US20140370026A1 (TRUSTEES OF PRINCETON UNIVERSITY, published 2014) come the findings set out here.

The chains are these.
B1: human CMV glycoprotein gO (UL74-coded) (other)
chain: KVMSKALYNRPWRGLVLSKIGKYKLDQLKLEILRQLETTISTKYNVSKQPVKNLTMNMTEFPQYYILAGPIQNYSITYLWFDFYSTQLRKPAKYVYSQYNHTAKTITFRPPPCGTVPSMTCLSEMLNVSKRNDTGEQGCGNFTTFNPMFFNVPRWNTKLYVGPTKVNVDSQTIYFLGLTALLLRYAQRNCTHSFYLVNAMSRNLFRVPKYINGTKLKNTMRKLKRKQAPVKEQFEKKAKKTQSTTTPYFSYTTSAALNVTTNVTYSITTAARRVSTSTIAYRPDSSFMKSIMATQLRDLATWVYTTLRYRQNPFCEPSRNRTAVSEFMKNTHVLIRNETPYTIYGTLDMSSLYYNETMFVENKTASDSNKTTPTSPSMGFQRTFIDPLWDYLDSLLFLDEIRNFSLRSPTYVNLTPPEHRRAVNLSTLNSLWWWLQ
B2: human CMV glycoprotein gN (UL73-coded) (other)
chain: NNSSTSTSATTSKSSASVSTTKLTTVATTSATTTTTTTLSTTSTKLSSTTHDPNVMRRHANDDFYKAHCTSHMYELSLSSFAAWWTMLNALILMGAFCIVLRHCCFQNFTATTTKGY
notes: also called ~60-kDa protein
B3: human CMV pUL128 (other)
chain: EECCEFINVNHPPERCYDFKMCNRFTVALRCPDGEVCYSPEKTAEIRGIVTTMTHSLTRQVVHNKLTSCNYNPLYLEADGRIRCGKVNDKAQYLLGAAGSVPYRWINLEYDKITRIVGLDQYLESVKKHKRLDVCRAKMGYMLQ
notes: also called UL128 protein; 16-kDa protein

The target of experiment [1] is human CMV glycoprotein gH (UL75-coded) (human CMV, UniProt P12824 24-743). Description: co-immunoprecipitation with anti-gH 14-4b.
A further experiment deals with T1, human CMV pUL130 (human CMV, UniProt P16772 26-214).
T1 construct: also called UL130 protein; 33- to 35-kDa protein
Briefly: co-immunoprecipitation with anti-gO from radiolabeled infected MRC-5 lysates (FIG. 3A).

In experiment [2] the target is T2, human CMV glycoprotein gM (UL100-coded) (human CMV, UniProt P16733 1-372).
T2 sequence: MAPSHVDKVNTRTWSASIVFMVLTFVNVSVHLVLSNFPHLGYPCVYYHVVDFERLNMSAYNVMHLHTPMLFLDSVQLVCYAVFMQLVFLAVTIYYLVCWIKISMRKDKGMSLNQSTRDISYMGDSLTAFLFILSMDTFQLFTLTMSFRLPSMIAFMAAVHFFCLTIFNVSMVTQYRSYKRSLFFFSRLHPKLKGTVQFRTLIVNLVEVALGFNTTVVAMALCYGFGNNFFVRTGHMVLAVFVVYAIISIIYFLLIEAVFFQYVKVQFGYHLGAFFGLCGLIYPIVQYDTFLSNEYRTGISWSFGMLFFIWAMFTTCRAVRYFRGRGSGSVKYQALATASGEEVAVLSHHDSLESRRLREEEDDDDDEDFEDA
Briefly: co-immunoprecipitation with anti-gM IMP91-3/1.

In experiment [3] the target is B1. Briefly: co-immunoprecipitation with anti-gO from radiolabeled infected MRC-5 lysates (FIG. 3A).

For B1, the binding result is given as “binds” in experiment [1] and “no binding” with human CMV pUL130.
With B2, the binding result in experiment [2] is listed as “binds”.
As for B3, the binding result in experiment [3] is “no binding”.
